The text below walks through data of patent US20030157645.

First the molecules themselves.
B1: Subtilisin E (wild type) (protein)
chain: AQSVPYGISQIKAPALHSQGYTGSNVKVAVIDSGIDSSHPDLNVRGGASFVPSETNPYQDGSSHGTHVAGTIAALNNSIGVLGVSPSASLYAVKVLDSTGSGQYSWIINGIEWAISNNMDVINMSLGGPTGSTALKTVVDKAVSSGIVVAAAAGNEGSSGSTSTVGYPAKYPSTIAVGAVNSSNQRASFSSAGSELDVMAPGVSIQSTLPGGTYGAYNGTSMATPHVAGAAALILSKHPTWTNAQVRDRLESTATYLGNSFYYGKGLINVQAAAQ
B2: Variant 22 (E54D/Q103R/T133K/E156A/Y217H) (protein)
chain: B1 chain with E54D, Q103R, T133K, E156A, Y217H
B3: Variant 4 (Q103R/V138A/A150V/E156A/Y217H/Q271H) (protein)
chain: B1 chain with Q103R, V138A, A150V, E156A, Y217H, Q271H
B4: Variant 1 (Y6N/I31L/S38T/F50I/Q103R) (protein)
chain: B1 chain with Y6N, I31L, S38T, F50I, Q103R

Positions count from the first letter of the chain named. Names and notes keep the numbering of the source.

In the data set the target is fluorescent labeled casein or bovine serum albumin molecules.
A word on the Km: it is the concentration of substrate that gives half-maximal velocity. As to B1, the Km was determined as 194 µM.

Take B2: the Km was 26 µM.

On to B3, for which the Km worked out at 71 µM.

Consider B4, for which the Km was 117 µM.
